Experimental data reported in paper PMC7367873, “Dissecting the sequence determinants for dephosphorylation by the catalytic subunits of phosphatases PP1 and PP2A” (Nature Communications, 2020).

Assays:
GFP-14-3-3β = GFP-14-3-3β co-IP with LC-MS/MS, untreated GFP-14-3-3β versus GFP control (14-3-3 interactome); format: binding, human
[1] = tested on: GFP-14-3-3β and its binding proteins; test: GFP-14-3-3β co-IP with LC-MS/MS label-free quantification, untreated versus PP1c-treated; design: species or system human
[2] = untreated vs GFP, LFQ intensities, replicates 1-3
[3] = PP1 vs untreated, LFQ intensities, replicates 1-3
[4] = pairwise comparison untreated GFP-14-3-3β vs GFP, student's t-test, 3 replicates each, LC-MS/MS label-free quantification
[5] = pairwise comparison PP1 vs untreated, student's t-test, 3 replicates each, LC-MS/MS label-free quantification

| Molecule | Difference (log2), PP1 vs untreated [1, 3] | Difference (log2), PP1 vs untreated [1, 5] | Difference (log2), untreated vs GFP (GFP-14-3-3β; [2]) | Difference (log2), untreated vs GFP (GFP-14-3-3β; [4]) | also measured |
| --- | --- | --- | --- | --- | --- |
| BAIAP2 (protein, UniProt Q9UQB8 1-552, looked up) BAR/IMD domain-containing …: MSLSRSEEMHRLTENVYKTIMEQFNPSLRNFIAMGKNYEKALAGVTYAAKGYFDALVKMGELASESQGSKELGDVLFQMAEVHRQIQNQLEEMLKSFHNELLTQLEQKVELDSRYLSAALKKYQTEQRSKGDALDKCQAELKKLRKKSQGSKNPQKYSDKELQYIDAISNKQGELENYVSDGYKTALTEERRRFCFLVEKQCAVAKNSAAYHSKGKELLAQKLPLWQQACADPSKIPERAVQLMQQVASNGATLPSALSASKSNLVISDPIPGAKPLPVPPELAPFVGRMSAQESTPIMNGVTGPDGEDYSPWADRKAAQPKSLSPPQSQSKLSDSYSNTLPVRKSVTPKNSYATTENKTLPRSSSMAAGLERNGRMRVKAIFSHAAGDNSTLLSFKEGDLITLLVPEARDGWHYGESEKTKMRGWFPFSYTRVLDSDGSDRLHMSLQQGKSSSTGNLLDKDDLAIPPPDYGAASRAFPAQTASGFKQRPYSVAVPAFSQGLDDYGARSMSRNPFAHVQLKPTVTNDRCDLSAQGPEGREHGDGSARTLAGR | -1.977 log2 | – | 2.991 log2 | – | – |
| SND1 (protein, UniProt Q7KZF4 2-910, looked up) Staphylococcal nuclease …: ASSAQSGGSSGGPAVPTVQRGIIKMVLSGCAIIVRGQPRGGPPPERQINLSNIRAGNLARRAAATQPDAKDTPDEPWAFPAREFLRKKLIGKEVCFTIENKTPQGREYGMIYLGKDTNGENIAESLVAEGLATRREGMRANNPEQNRLSECEEQAKAAKKGMWSEGNGSHTIRDLKYTIENPRHFVDSHHQKPVNAIIEHVRDGSVVRALLLPDYYLVTVMLSGIKCPTFRREADGSETPEPFAAEAKFFTESRLLQRDVQIILESCHNQNILGTILHPNGNITELLLKEGFARCVDWSIAVYTRGAEKLRAAERFAKERRLRIWRDYVAPTANLDQKDKQFVAKVMQVLNADAIVVKLNSGDYKTIHLSSIRPPRLEGENTQDKNKKLRPLYDIPYMFEAREFLRKKLIGKKVNVTVDYIRPASPATETVPAFSERTCATVTIGGINIAEALVSKGLATVIRYRQDDDQRSSHYDELLAAEARAIKNGKGLHSKKEVPIHRVADISGDTQKAKQFLPFLQRAGRSEAVVEYVFSGSRLKLYLPKETCLITFLLAGIECPRGARNLPGLVQEGEPFSEEATLFTKELVLQREVEVEVESMDKAGNFIGWLHIDGANLSVLLVEHALSKVHFTAERSSYYKSLLSAEEAAKQKKEKVWAHYEEQPVEEVMPVLEEKERSASYKPVFVTEITDDLHFYVQDVETGTQLEKLMENMRNDIASHPPVEGSYAPRRGEFCIAKFVDGEWYRARVEKVESPAKIHVFYIDYGNREVLPSTRLGTLSPAFSTRVLPAQATEYAFAFIQVPQDDDARTDAVDSVVRDIQNTQCLLNVEHLSAGCPHVTLQFADSKGDVGLGLVKEGLVMVEVRKEKQFQKVITEYLNAQESAKSARLNLWRYGDFRADDADEFGYSR | – | – | – | – | Difference (log2), untreated vs GFP (GFP-14-3-3β; log2 difference, pairwise comparison untreated vs GFP, label-free quantification, 3 replicates each): -0.5008; Difference (log2), PP1 vs untreated ([1]; log2 difference, pairwise comparison PP1 vs untreated, label-free quantification, 3 replicates each): 1.5668 |
| CYFIP1 (protein, UniProt Q7L576 1-1253, looked up) Cytoplasmic FMR1-interacting …: MAAQVTLEDALSNVDLLEELPLPDQQPCIEPPPSSLLYQPNFNTNFEDRNAFVTGIARYIEQATVHSSMNEMLEEGQEYAVMLYTWRSCSRAIPQVKCNEQPNRVEIYEKTVEVLEPEVTKLMNFMYFQRNAIERFCGEVRRLCHAERRKDFVSEAYLITLGKFINMFAVLDELKNMKCSVKNDHSAYKRAAQFLRKMADPQSIQESQNLSMFLANHNKITQSLQQQLEVISGYEELLADIVNLCVDYYENRMYLTPSEKHMLLKVMGFGLYLMDGSVSNIYKLDAKKRINLSKIDKYFKQLQVVPLFGDMQIELARYIKTSAHYEENKSRWTCTSSGSSPQYNICEQMIQIREDHMRFISELARYSNSEVVTGSGRQEAQKTDAEYRKLFDLALQGLQLLSQWSAHVMEVYSWKLVHPTDKYSNKDCPDSAEEYERATRYNYTSEEKFALVEVIAMIKGLQVLMGRMESVFNHAIRHTVYAALQDFSQVTLREPLRQAIKKKKNVIQSVLQAIRKTVCDWETGHEPFNDPALRGEKDPKSGFDIKVPRRAVGPSSTQLYMVRTMLESLIADKSGSKKTLRSSLEGPTILDIEKFHRESFFYTHLINFSETLQQCCDLSQLWFREFFLELTMGRRIQFPIEMSMPWILTDHILETKEASMMEYVLYSLDLYNDSAHYALTRFNKQFLYDEIEAEVNLCFDQFVYKLADQIFAYYKVMAGSLLLDKRLRSECKNQGATIHLPPSNRYETLLKQRHVQLLGRSIDLNRLITQRVSAAMYKSLELAIGRFESEDLTSIVELDGLLEINRMTHKLLSRYLTLDGFDAMFREANHNVSAPYGRITLHVFWELNYDFLPNYCYNGSTNRFVRTVLPFSQEFQRDKQPNAQPQYLHGSKALNLAYSSIYGSYRNFVGPPHFQVICRLLGYQGIAVVMEELLKVVKSLLQGTILQYVKTLMEVMPKICRLPRHEYGSPGILEFFHHQLKDIVEYAELKTVCFQNLREVGNAILFCLLIEQSLSLEEVCDLLHAAPFQNILPRVHVKEGERLDAKMKRLESKYAPLHLVPLIERLGTPQQIAIAREGDLLTKERLCCGLSMFEVILTRIRSFLDDPIWRGPLPSNGVMHVDECVEFHRLWSAMQFVYCIPVGTHEFTVEQCFGDGLHWAGCMIIVLLGQQRRFAVLDFCYHLLKVQKHDGKDEIIKNVPLKKMVERIRKFQILNDEIITILDKYLKSGDGEGTPVEHVRCFQPPIHQSLASS | – | -2.17 log2 | – | 3.924 log2 | – |

The next lines start with results.

| Difference (log2), PP1 vs untreated [1, 3] | Difference (log2), PP1 vs untreated [1, 5] | Molecule | Difference (log2), untreated vs GFP (GFP-14-3-3β; [2]) | Difference (log2), untreated vs GFP (GFP-14-3-3β; [4]) | also measured |
| --- | --- | --- | --- | --- | --- |
| – | -2.05 log2 | SORBS2 (protein, UniProt O94875 1-1100, looked up) Sorbin and SH3 …: MSYYQRPFSPSAYSLPASLNSSIVMQHGTSLDSTDTYPQHAQSLDGTTSSSIPLYRSSEEEKRVTVIKAPHYPGIGPVDESGIPTAIRTTVDRPKDWYKTMFKQIHMVHKPDDDTDMYNTPYTYNAGLYNPPYSAQSHPAAKTQTYRPLSKSHSDNSPNAFKDASSPVPPPHVPPPVPPLRPRDRSSTEKHDWDPPDRKVDTRKFRSEPRSIFEYEPGKSSILQHERPASLYQSSIDRSLERPMSSASMASDFRKRRKSEPAVGPPRGLGDQSASRTSPGRVDLPGSSTTLTKSFTSSSPSSPSRAKGGDDSKICPSLCSYSGLNGNPSSELDYCSTYRQHLDVPRDSPRAISFKNGWQMARQNAEIWSSTEETVSPKIKSRSCDDLLNDDCDSFPDPKVKSESMGSLLCEEDSKESCPMAWGSPYVPEVRSNGRSRIRHRSARNAPGFLKMYKKMHRINRKDLMNSEVICSVKSRILQYESEQQHKDLLRAWSQCSTEEVPRDMVPTRISEFEKLIQKSKSMPNLGDDMLSPVTLEPPQNGLCPKRRFSIEYLLEEENQSGPPARGRRGCQSNALVPIHIEVTSDEQPRAHVEFSDSDQDGVVSDHSDYIHLEGSSFCSESDFDHFSFTSSESFYGSSHHHHHHHHHHHRHLISSCKGRCPASYTRFTTMLKHERARHENTEEPRRQEMDPGLSKLAFLVSPVPFRRKKNSAPKKQTEKAKCKASVFEALDSALKDICDQIKAEKKRGSLPDNSILHRLISELLPDVPERNSSLRALRRSPLHQPLHPLPPDGAIHCPPYQNDCGRMPRSASFQDVDTANSSCHHQDRGGALQDRESPRSYSSTLTDMGRSAPRERRGTPEKEKLPAKAVYDFKAQTSKELSFKKGDTVYILRKIDQNWYEGEHHGRVGIFPISYVEKLTPPEKAQPARPPPPAQPGEIGEAIAKYNFNADTNVELSLRKGDRVILLKRVDQNWYEGKIPGTNRQGIFPVSYVEVVKKNTKGAEDYPDPPIPHSYSSDRIHSLSSNKPQRPVFTHENIQGGGEPFQALYNYTPRNEDELELRESDVIDVMEKCDDGWFVGTSRRTKFFGTFPGNYVKRL | – | 3.7091 log2 | – |
| -2.012 log2 | – | ZYX (protein, UniProt Q15942 2-572, looked up) Zyxin: AAPRPSPAISVSVSAPAFYAPQKKFGPVVAPKPKVNPFRPGDSEPPPAPGAQRAQMGRVGEIPPPPPEDFPLPPPPLAGDGDDAEGALGGAFPPPPPPIEESFPPAPLEEEIFPSPPPPPEEEGGPEAPIPPPPQPREKVSSIDLEIDSLSSLLDDMTKNDPFKARVSSGYVPPPVATPFSSKSSTKPAAGGTAPLPPWKSPSSSQPLPQVPAPAQSQTQFHVQPQPQPKPQVQLHVQSQTQPVSLANTQPRGPPASSPAPAPKFSPVTPKFTPVASKFSPGAPGGSGSQPNQKLGHPEALSAGTGSPQPPSFTYAQQREKPRVQEKQHPVPPPAQNQNQVRSPGAPGPLTLKEVEELEQLTQQLMQDMEHPQRQNVAVNELCGRCHQPLARAQPAVRALGQLFHIACFTCHQCAQQLQGQQFYSLEGAPYCEGCYTDTLEKCNTCGEPITDRMLRATGKAYHPHCFTCVVCARPLEGTSFIVDQANRPHCVPDYHKQYAPRCSVCSEPIMPEPGRDETVRVVALDKNFHMKCYKCEDCGKPLSIEADDNGCFPLDGHVLCRKCHTARAQT | -0.162 log2 | – | – |
| – | -2.1937 log2 | HDAC4 (protein, UniProt P56524 1-1084, looked up) Histone deacetylase 4: MSSQSHPDGLSGRDQPVELLNPARVNHMPSTVDVATALPLQVAPSAVPMDLRLDHQFSLPVAEPALREQQLQQELLALKQKQQIQRQILIAEFQRQHEQLSRQHEAQLHEHIKQQQEMLAMKHQQELLEHQRKLERHRQEQELEKQHREQKLQQLKNKEKGKESAVASTEVKMKLQEFVLNKKKALAHRNLNHCISSDPRYWYGKTQHSSLDQSSPPQSGVSTSYNHPVLGMYDAKDDFPLRKTASEPNLKLRSRLKQKVAERRSSPLLRRKDGPVVTALKKRPLDVTDSACSSAPGSGPSSPNNSSGSVSAENGIAPAVPSIPAETSLAHRLVAREGSAAPLPLYTSPSLPNITLGLPATGPSAGTAGQQDAERLTLPALQQRLSLFPGTHLTPYLSTSPLERDGGAAHSPLLQHMVLLEQPPAQAPLVTGLGALPLHAQSLVGADRVSPSIHKLRQHRPLGRTQSAPLPQNAQALQHLVIQQQHQQFLEKHKQQFQQQQLQMNKIIPKPSEPARQPESHPEETEEELREHQALLDEPYLDRLPGQKEAHAQAGVQVKQEPIESDEEEAEPPREVEPGQRQPSEQELLFRQQALLLEQQRIHQLRNYQASMEAAGIPVSFGGHRPLSRAQSSPASATFPVSVQEPPTKPRFTTGLVYDTLMLKHQCTCGSSSSHPEHAGRIQSIWSRLQETGLRGKCECIRGRKATLEELQTVHSEAHTLLYGTNPLNRQKLDSKKLLGSLASVFVRLPCGGVGVDSDTIWNEVHSAGAARLAVGCVVELVFKVATGELKNGFAVVRPPGHHAEESTPMGFCYFNSVAVAAKLLQQRLSVSKILIVDWDVHHGNGTQQAFYSDPSVLYMSLHRYDDGNFFPGSGAPDEVGTGPGVGFNVNMAFTGGLDPPMGDAEYLAAFRTVVMPIASEFAPDVVLVSSGFDAVEGHPTPLGGYNLSARCFGYLTKQLMGLAGGRIVLALEGGHDLTAICDASEACVSALLGNELDPLPEKVLQQRPNANAVRSMEKVMEIHSKYWRCLQRTTSTAGRSLIEAQTCENEEAETVTAMASLSVGVKPAEKRPDEEPMEEEPPL | – | 7.6192 log2 | – |
